Source: patent US20030124598A1

Target: GAL4-PGC-1β (yeast; mouse) (UniProt P04386)
Assay: cell-based or functional assay

In the case of Flag-tagged HCF, the transcriptional activity of PGC-1β in a cotransfection assay (luciferase, BOSC cells, FIG. 9A) is reported as 3 fold.
